# B1: full-length mouse lipin 1 alpha (residues 1–891), from Sf9 cells (natural protein, UniProt Q91ZP3-2 1-891, looked up)
# chain: MNYVGQLAGQVFVTVKELYKGLNPATLSGCIDIIVIRQPNGSLQCSPFHVRFGKMGVLRSREKVVDIEINGESVDLHMKLGDNGEAFFVQETDNDQEIIPMYLATSPILSEGAARMESQLKRNSVDRIRCLDPTTAAQGLPPSDTPSTGSLGKKRRKRRRKAQLDNLKRDDNVNSSEDEDMFPIEMSSDEDTAPMDGSRTLPNDVPPFQDDIPKENFPSISTHPQSASYPSSDREWSPSPSPSGSRPSTPKSDSELVSKSADRLTPKNNLEMLWLWGELPQAAKSSSPHKMKESSPLGSRKTPDKMNFQAIHSESSDTFSDQSPTMARGLLIHQSKAQTEMQFVNEEDLESLGAAAPPSPVAEELKAPYPNTAQSSSKTDSPSRKKDKRSRHLGADGVYLDDLTDMDPEVAALYFPKNGDPGGLPKQASDNGARSANQSPQSVGGSGIDSGVESTSDSLRDLPSIAISLCGGLSDHREITKDAFLEQAVSYQQFADNPAIIDDPNLVVKVGNKYYNWTTAAPLLLAMQAFQKPLPKATVESIMRDKMPKKGGRWWFSWRGRNATIKEESKPEQCLTGKGHNTGEQPAQLGLATRIKHESSSSDEEHAAAKPSGSSHLSLLSNVSYKKTLRLTSEQLKSLKLKNGPNDVVFSVTTQYQGTCRCEGTIYLWNWDDKVIISDIDGTITRSDTLGHILPTLGKDWTHQGIAKLYHKVSQNGYKFLYCSARAIGMADMTRGYLHWVNERGTVLPQGPLLLSPSSLFSALHREVIEKKPEKFKVQCLTDIKNLFFPNTEPFYAAFGNRPADVYSYKQVGVSLNRIFTVNPKGELVQEHAKTNISSYVRLCEVVDHVFPLLKRSHSCDFPCSDTFSNFTFWREPLPPFENQDMHSASA
# notes: mouse lipin 1 alpha, full length, residues 1–891 (891 residues printed); Vector YM-Bac3, a modified pFastBac Htb; also called wild-type lipin 1; recombinant lipin 1; source: Sf9, baculovirus, purified (Ni-NTA, Streptactin-XT, SEC)
# B2: mouse lipin 2 M-Lip^xtal domain (residues 459–549) (domain or fragment, UniProt Q99PI5 459-549, looked up)
# chain: SAMDLPDVTLSLCGGLSENGEISKEKFMEHIITYHEFAENPGLIDNPNLVIRIYNRYYNWALAAPMILSLQVFQKSLPKATVESWVKDKMP
# notes: mouse lipin 2, M-Lip^xtal domain, residues 459–549; Cloned into pET28b with NdeI and NotI; the purification section names pET28a; source: E. coli BL21 (DE3) RIPL, purified (Ni-NTA, SEC)
# B3: mouse lipin 1 M-Lip^xtal domain (residues 458–548), as used in SEC-MALS (domain or fragment, UniProt Q91ZP3-2 458-548, looked up)
# chain: SLRDLPSIAISLCGGLSDHREITKDAFLEQAVSYQQFADNPAIIDDPNLVVKVGNKYYNWTTAAPLLLAMQAFQKPLPKATVESIMRDKMP
# notes: mouse lipin 1, M-Lip^xtal domain, residues 458–548; numbers count on: mouse lipin 1 alpha (891 residues); The stated dimer mass of 26 kDa (13 kDa a chain) would fit the 91 residues plus a vector-encoded His tag (surmise); source: E. coli BL21 (DE3) RIPL, purified (Ni-NTA, SEC)
# Legend:
# [1] = biological target: the molecule itself; test: SEC; Superdex 200 10/300 in 20 mM Tris pH 8.0, 150 mM NaCl, 10 mM 2-mercaptoethanol; elution compared with MW standards
# [2] = biological target: the molecule itself; test: crystal structure; mouse lipin 2 M-Lip^xtal, 0.2 M calcium acetate, 20% PEG 3350, hanging drop, RT
# [3] = biological target: the molecule itself; test: SEC-MALS; 1.6 mg injected onto Superdex 200 Increase 10/300, flow 0.35 ml/min
protein,measurement,setting,value
B1,binding result,[1],binds
B2,binding result,[2],binds
B3,stoichiometry N,[3],2
